How the values were obtained:
[1] = biological target: human immunoglobulin E (hIgE) (human) (UniProt P01854); assay: competition ELISA, hIgE to coated hFcεRIα, pH 7.4
[2] = biological target: human immunoglobulin E (hIgE) (human) (UniProt P01854); assay: SPR competition, hIgE over hFcεRIα chip, pH 5.5
[3] = biological target: human immunoglobulin E (hIgE) (human) (UniProt P01854); assay: SPR competition, hIgE over hFcεRIα chip, pH 6 (text: pH 5.5)
[4] = biological target: human IgE pre-bound on human basophils (human) (UniProt P01854); assay: cell-based or functional assay
[5] = biological target: human immunoglobulin E (hIgE) (human) (UniProt P01854); assay: competition ELISA, hIgE to coated hFcεRIα, pH 6
[6] = biological target: human immunoglobulin E (hIgE) (human) (UniProt P01854); assay: flow cytometry: inhibition of human IgE binding to hFcεRIα+ bone-marrow-derived mast cells, residual IgE staining (MFI); table head on the sheet reads EC50, the text calls the values IC50; no unit in the table, x axis in µg/ml
[7] = biological target: human immunoglobulin E (hIgE) (human) (UniProt P01854); assay: SPR competition
[8] = biological target: human immunoglobulin E (hIgE) (human) (UniProt P01854); assay: SPR competition, hIgE over hFcεRIα chip, pH 7.4
[9] = biological target: human immunoglobulin E (hIgE) (human) (UniProt P01854); assay: SPR competition, hIgE over hFcεRIα chip, pH 7.4; remark: listed apart in the source
[10] = biological target: human immunoglobulin E (hIgE) (human) (UniProt P01854); assay: flow cytometry: inhibition of human IgE binding to hFcεRIα+ bone-marrow-derived mast cells, residual IgE staining (MFI); unit inferred, x axis in µg/ml
[11] = biological target: human immunoglobulin E (hIgE) (human) (UniProt P01854); assay: competition ELISA
[12] = biological target: human immunoglobulin E (hIgE) (human) (UniProt P01854); assay: competition ELISA, biotin-hIgE to coated hFcεRIα, pH 6
[13] = biological target: human immunoglobulin E (hIgE) (human) (UniProt P01854); assay: competition ELISA, biotin-hIgE to coated hFcεRIα, pH 7.4
[14] = biological target: human immunoglobulin E (hIgE) (human) (UniProt P01854); assay: SPR competition, hIgE + mAb over hFcεRIα chip, pH 6 (text: pH 5.5)
[15] = biological target: human immunoglobulin E (hIgE) (human) (UniProt P01854); assay: SPR competition, hIgE + mAb over hFcεRIα chip, pH 7.4

Sequence of human IgE pre-bound on human basophils (human) (P01854 whole entry, chain 1 of 2): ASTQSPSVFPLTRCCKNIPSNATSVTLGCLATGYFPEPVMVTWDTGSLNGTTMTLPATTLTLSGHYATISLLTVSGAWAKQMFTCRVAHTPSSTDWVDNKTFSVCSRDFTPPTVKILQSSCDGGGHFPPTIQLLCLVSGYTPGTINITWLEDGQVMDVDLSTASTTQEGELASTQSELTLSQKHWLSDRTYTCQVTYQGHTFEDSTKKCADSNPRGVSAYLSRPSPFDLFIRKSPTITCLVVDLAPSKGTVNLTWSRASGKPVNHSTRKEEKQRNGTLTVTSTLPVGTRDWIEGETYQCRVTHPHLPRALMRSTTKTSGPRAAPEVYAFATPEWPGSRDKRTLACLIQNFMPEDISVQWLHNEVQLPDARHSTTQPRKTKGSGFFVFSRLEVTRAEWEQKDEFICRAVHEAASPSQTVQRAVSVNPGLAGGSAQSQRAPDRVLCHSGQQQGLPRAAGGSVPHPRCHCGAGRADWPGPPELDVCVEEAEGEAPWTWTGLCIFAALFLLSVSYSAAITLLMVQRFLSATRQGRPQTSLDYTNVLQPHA
Sequence of human IgE pre-bound on human basophils (human) (P12319 26-257, chain 2 of 2, further chain): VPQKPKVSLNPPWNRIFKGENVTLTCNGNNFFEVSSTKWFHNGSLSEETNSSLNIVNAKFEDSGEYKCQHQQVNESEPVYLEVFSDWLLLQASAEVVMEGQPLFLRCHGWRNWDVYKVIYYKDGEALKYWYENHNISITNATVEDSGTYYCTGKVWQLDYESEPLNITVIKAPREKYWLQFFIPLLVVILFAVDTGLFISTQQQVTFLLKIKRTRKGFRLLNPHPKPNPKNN
Sequence of human immunoglobulin E (hIgE) (human) (P01854 whole entry): as the sequence (P01854 whole entry, chain 1 of 2) above

Row | Binder | IC50 [1] | IC50 [2] | IC50 [3] | % of activated basophils (CCR3+CD63+) [4] | IC50 [5] | IC50 [6] | ratio between IC50 at pH5.5 and pH 7.4 [7] | IC50 [8] | IC50 [9] | IC50 [10] | also measured
1 | 18E2His2-hIgG1-WT (antibody, V domains shown) VH: QLQLVESGGGLVQPGGSLRLSCAASGFTFSSYVMHWVRQAPGKGLEWVSSIYHDGSHTYYADFVKGRFTISRDNAKNTLYLQMNSLKSEDTAVYYCASGTSYSGSYYYTDPFFGSWGQGTQVTVSS VL: NFMLTQPSALSVTLGQTARITCQGDRLGSRYIHWYQQKPPQAPVLVIHDDDRRPSGIPERFSGSSSGGTATLTISGAQAEDDGDYYCQSADSSGNPVFGGGTHLTVL | 2.48 µg/mL | 9.86 µg/mL | 6310 µg/mL | 5% | 77.2 µg/mL | 25.7 µg/mL | 6.3 | 6 µg/mL | 1.56 µg/mL | – | fold reduction of affinity at pH 7.4 against the WT clone [7]: 2.5 fold
2 | 18B9His-hIgG1-ABDEG (antibody, V domains shown) VH: QVQLVESGGGLVQPGGSLRLSCAASGFTFSSYVMSWVRQAPGKGLEWVSSIYSDGSHTYYADSVKGRFTISRDNAKNTLYLQMNSLKSEDTAVYYCAKNLEHYSGSYYYTDPRYDYWGQGTQVTVSS VL: SSALTQPSALSVTLGQTAKITCQGGSLGSSYVHWYQQKPGQAPVLVIHDGDSRPSGIPERFSGSSSGGTATLTISGAQAEDEDDYYCQSADSSGNAVFGGGTHLTVL | 0.13 µg/mL | – | 52.9 µg/mL | 29% | 2.55 µg/mL | – | – | 2.9 µg/mL | – | 4.16 µg/mL | –

Now from value to binder, other results behind:

Row | IC50 [1] | IC50 [2] | IC50 [3] | % of activated basophils (CCR3+CD63+) [4] | IC50 [5] | IC50 [6] | ratio between IC50 at pH5.5 and pH 7.4 [7] | IC50 [8] | IC50 [9] | IC50 [10] | Binder | also measured
3 | 0.19 µg/mL | 4.06 µg/mL | 58.5 µg/mL | 32% | 3.02 µg/mL | – | 5.4 | 2.7 µg/mL | 0.749 µg/mL | 3.89 µg/mL | 18B9His-hIgG1-WT (antibody, V domains shown) VH: QVQLVESGGGLVQPGGSLRLSCAASGFTFSSYVMSWVRQAPGKGLEWVSSIYSDGSHTYYADSVKGRFTISRDNAKNTLYLQMNSLKSEDTAVYYCAKNLEHYSGSYYYTDPRYDYWGQGTQVTVSS VL: SSALTQPSALSVTLGQTAKITCQGGSLGSSYVHWYQQKPGQAPVLVIHDGDSRPSGIPERFSGSSSGGTATLTISGAQAEDEDDYYCQSADSSGNAVFGGGTHLTVL | % CD63+ basophils at 20 µg/mL [4]: 12.6%; % CD63+ basophils at 100 µg/mL [4]: 37%; SI (Stimulation Index) at 20 µg/mL [4]: 5.48; SI (Stimulation Index) at 100 µg/mL [4]: 16.1
4 | 0.00681 µg/mL | – | 2.5 µg/mL | 18% | 0.0114 µg/mL | 1.44 µg/mL | – | 2.3 µg/mL | – | – | 13E4-hIgG1-WT (antibody, V domains shown) VH: ELQLVESGGGLVQPGGSLRLSCAASGFTFSSYVMSWVRQAPGKGLEWVSSIYHDGSHTYYADFVKGRFTISRDNAKNTLYLQMNSLKSEDTAVYYCASGTSYSGSYYYTDPFFGSWGQGTQVTVSS VL: HSAVTQPSALSVTLGQTAKITCQGGSLGSNYAYWYQQKPGQAPVLVIYDDDSRPSGIPERFSGSSSGGTATLTISGAQAEDEGDYYCQSADSNGNAVFGGGTHLTVL | Ratio pH 6/7.4 (IC50) [11]: 1.2; IC50 [12]: 12.9 nM; IC50 [13]: 10.3 nM; IC50 [14]: 1.54 nM; Ratio pH 6/7.4 (IC50) [7]: 1; IC50 [15]: 1.62 nM

— patent US20220177604A1
